Results reported in US20240115745A1 (3B PHARMACEUTICALS, published 2024).
*1 amine or outer side, *2 acyl side, *3 side chain or, on linkers, in order; H or OH if unused. Bridges are numbered along the chain shown (N, C = ends). Primed or numbered codes have the meaning given here. [ ]: non-standard residue; d: D form. The star is where a group is joined. mli = maleimide cyclization element: 3,4-maleimide inserted symmetrically, forming a vinyl thioether with each Cys sulfur; Ttds = 1,13-diamino-4,7,10-trioxatridecan-succinamic acid, NCCCOCCOCCOCCCNC(=O)CCC(=O)*; mli(DOTA-Ttd) = 3,4-N-(DOTA-Ttd)-maleimide bridging two Cys S atoms as vinyl thioethers; N4Ac = 6-carboxy-1,4,8,11-tetraazaundecane, NCCNCC(CNCCN)C(=O)*; Buur = n-butylaminocarbonyl blocking group, CCCCNC(=O)*; DOTA = O=C(O)CN1CCN(CC(=O)O)CCN(CC(=O)*)CCN(CC(=O)O)CC1; NODAGA = O=C(O)CN1CCN(CC(=O)O)CCN(C(CCC(=O)*)C(=O)O)CC1; Maleimide(3,4-diyl) = O=C1NC(=O)C([*:2])=C1[*:1]; Buur″ = n-butylaminocarbonyl, CCCCNC(=O)*; O2Oc = 3,6-dioxaoctanoic acid; β3hK = NCCCC[C@H](N)CC(=O)O; 4Amb = NCc1ccc(C(=O)O)cc1; hCys = N[C@@H](CCS)C(=O)O; Nle = CCCC[C@H](N)C(=O)O; Hexanoyl = CCCCCC(=O)*

Assays:
[1] = target: Recombinant human FAP (R&D systems, #3715-SE) (human, UniProt Q12884 26-760); assay: cell-based or functional assay
[2] = target: T1, fibroblast activation protein (FAP) on FAP-expressing human WI-38 fibroblasts (human, UniProt Q12884 1-760); assay: competitive FACS on WI-38 cells vs 3 nM Cy5-labeled probe; A = pIC50 >7.0
T1 construct: Endogenous FAP on WI-38 cells (ECACC) in the FACS assay; also called human FAP
Method: FAP-expressing human WI-38 fibroblasts (ECACC) were cultured in EMEM including 15% fetal bovine serum, 2 mM L-Glutamine and 1% Non-essential amino acids. Cells were detached with Accutase (Biolegend, #BLD-423201) and washed in FACS buffer (PBS including 1% FBS). Cells were diluted in FACS buffer to a final concentration of 100.000 cells per ml and 200 μl of the cell suspension are transferred to a u-shaped non-binding 96-well plate (Greiner). […] Cell were washed twice with FACS buffer and resuspended in 200 μl FACS buffer. Cells were analyzed in an Attune NxT flow cytometer. Median fluorescence intensities (Cy5 channel) was calculated by Attune NxT software and plotted against peptide concentrations. Four parameter logistic (4PL) curve fitting and pIC50 calculations were performed using ActivityBase software.

| Binder | pIC50 Category (Activity), FRET-based FAP protease activity assay [1] | pIC50 Category (FACS) [2] |
| --- | --- | --- |
| Hexanoyl-CPPTQFCD-NH2 (linker 1-7 via mli) [compound Hex-[Cys(mli)-Pro-Pro-Thr-Gln-Phe-Cys]-Asp-NH2 (2001)] | > 7 pIC50 | > 7 pIC50 |
| {DOTA-Ttds}-[Nle]CPPTEFCD-NH2 (disulfide 2-8) [compound DOTA-Ttds-Nle-[Cys-Pro-Pro-Thr-Glu-Phe-Cys]-Asp-NH2 (1003)] | > 7 pIC50 |  |
| Buur-CPPTQFCDK(DOTA)-NH2 (linker 1-7 via mli) [compound Buur-[Cys(mli)-Pro-Pro-Thr-Gln-Phe-Cys]-Asp-Lys(DOTA)-NH2 (2014)] | > 7 pIC50 | > 7 pIC50 |
| {DOTA-Ttds}-[Nle]CPPTQFCD-NH2 (linker 2-8 via mli) [compound DOTA-Ttds-Nle-[Cys(mli)-Pro-Pro-Thr-Gln-Phe-Cys]-Asp-NH2 (2005)] | > 7 pIC50 | > 7 pIC50 |
| Hexanoyl-CPPTEFC[β3hK](DOTA)-OH (disulfide 1-7; SMILES CCCCCC(=O)N[C@H]1CSSC[C@@H](C(=O)N[C@@H](CCCCNC(=O)CN2CCN(CC(=O)O)CCN(CC(=O)O)CCN(CC(=O)O)CC2)CC(=O)O)NC(=O)[C@H](Cc2ccccc2)NC(=O)[C@H](CCC(=O)O)NC(=O)[C@H]([C@@H](C)O)NC(=O)[C@@H]2CCCN2C(=O)[C@@H]2CCCN2C1=O) [compound Hex-[Cys-Pro-Pro-Thr-Glu-Phe-Cys]-Bhk(DOTA)-OH (1012)] | > 7 pIC50 | > 7 pIC50 |
| Hexanoyl-CPPTEFC[β3hK](DOTA)-OH (linker 1-7 via Maleimide(3,4-diyl); SMILES CCCCCC(=O)N[C@H]1CSC2=C(SC[C@@H](C(=O)N[C@@H](CCCCNC(=O)CN3CCN(CC(=O)O)CCN(CC(=O)O)CCN(CC(=O)O)CC3)CC(=O)O)NC(=O)[C@H](Cc3ccccc3)NC(=O)[C@H](CCC(=O)O)NC(=O)[C@H]([C@@H](C)O)NC(=O)[C@@H]3CCCN3C(=O)[C@@H]3CCCN3C1=O)C(=O)NC2=O) [compound Hex-[Cys(mli)-Pro-Pro-Thr-Glu-Phe-Cys]-Bhk(DOTA)-OH (2011)] | > 7 pIC50 | > 7 pIC50 |
| {DOTA}-[Nle]CPPTQFCD-NH2 (linker 2-8 via mli) [compound DOTA-Nle-[Cys(mli)-Pro-Pro-Thr-Gln-Phe-Cys]-Asp-NH2 (2003)] | > 7 pIC50 | > 7 pIC50 |
| Hexanoyl-[hCys]PPTQF[hCys]D-NH2 (disulfide 1-7) [compound Hex-[Hcy-Pro-Pro-Thr-Gln-Phe-Hcy]-Asp-NH2 (2002)] | > 7 pIC50 | > 7 pIC50 |
| {DOTA-Ttds}-[Nle]CPPTEFCD[4Amb]R-NH2 (disulfide 2-8, By the running order it belongs to 1007) [compound DOTA-Ttds-Nle-[Cys-Pro-Pro-Thr-Glu-Phe-Cys]-Asp-Pamb-Arg-NH2 (1007)] | > 7 pIC50 | > 7 pIC50 |
| Hexanoyl-CPPTQFCDK(DOTA)-NH2 (disulfide 1-7; SMILES CCCCCC(=O)N[C@H]1CSSC[C@@H](C(=O)N[C@@H](CC(=O)O)C(=O)N[C@@H](CCCCNC(=O)CN2CCN(CC(=O)O)CCN(CC(=O)O)CCN(CC(=O)O)CC2)C(N)=O)NC(=O)[C@H](Cc2ccccc2)NC(=O)[C@H](CCC(N)=O)NC(=O)[C@H]([C@@H](C)O)NC(=O)[C@@H]2CCCN2C(=O)[C@@H]2CCCN2C1=O) [compound Hex-[Cys-Pro-Pro-Thr-Gln-Phe-Cys]-Asp-Lys(DOTA)-NH2 (1016)] | > 7 pIC50 | > 7 pIC50 |
| Hexanoyl-CPPTEFCDK(DOTA)-NH2 (disulfide 1-7; SMILES CCCCCC(=O)N[C@H]1CSSC[C@@H](C(=O)N[C@@H](CC(=O)O)C(=O)N[C@@H](CCCCNC(=O)CN2CCN(CC(=O)O)CCN(CC(=O)O)CCN(CC(=O)O)CC2)C(N)=O)NC(=O)[C@H](Cc2ccccc2)NC(=O)[C@H](CCC(=O)O)NC(=O)[C@H]([C@@H](C)O)NC(=O)[C@@H]2CCCN2C(=O)[C@@H]2CCCN2C1=O) [compound Hex-[Cys-Pro-Pro-Thr-Glu-Phe-Cys]-Asp-Lys(DOTA)-NH2 (1013)] | > 7 pIC50 | > 7 pIC50 |
| Hexanoyl-CPPTEFCDK(N4Ac)-NH2 (disulfide 1-7; SMILES CCCCCC(=O)N[C@H]1CSSC[C@@H](C(=O)N[C@@H](CC(=O)O)C(=O)N[C@@H](CCCCNC(=O)C(CNCCN)CNCCN)C(N)=O)NC(=O)[C@H](Cc2ccccc2)NC(=O)[C@H](CCC(=O)O)NC(=O)[C@H]([C@@H](C)O)NC(=O)[C@@H]2CCCN2C(=O)[C@@H]2CCCN2C1=O) [compound Hex-[Cys-Pro-Pro-Thr-Glu-Phe-Cys]-Asp-Lys(N4Ac)-NH2 (1021)] | > 7 pIC50 | > 7 pIC50 |

Continued, values first:

| pIC50 Category (Activity), FRET-based FAP protease activity assay [1] | pIC50 Category (FACS) [2] | Binder |
| --- | --- | --- |
| > 7 pIC50 |  | CPPTEFCD (HELM PEPTIDE1{[O=C(O)CN1CCN(CC(=O)O)CCN(CC(=O)[*:2])CCN(CC(=O)O)CC1].[Nle].C.P.P.T.E.F.C.D.[am]}$PEPTIDE1,PEPTIDE1,3:R3-9:R3$$$V2.0; SMILES CCCC[C@H](NC(=O)CN1CCN(CC(=O)O)CCN(CC(=O)O)CCN(CC(=O)O)CC1)C(=O)N[C@H]1CSSC[C@@H](C(=O)N[C@@H](CC(=O)O)C(N)=O)NC(=O)[C@H](Cc2ccccc2)NC(=O)[C@H](CCC(=O)O)NC(=O)[C@H]([C@@H](C)O)NC(=O)[C@@H]2CCCN2C(=O)[C@@H]2CCCN2C1=O) [compound DOTA-Nle-[Cys-Pro-Pro-Thr-Glu-Phe-Cys]-Asp-NH2 (1004)] |
| > 7 pIC50 |  | {DOTA-Ttds}-[Nle]CPPTEFCD-NH2 (linker 2-8 via mli) [compound DOTA-Ttds-Nle-[Cys(mli)-Pro-Pro-Thr-Glu-Phe-Cys]-Asp-NH2 (2007)] |
| > 7 pIC50 |  | Hexanoyl-CPPTEFCD-NH2 (linker 1-7 via mli(DOTA-Ttd)) [compound Hex-[Cys(mli(DOTA-Ttd))-Pro-Pro-Thr-Glu-Phe-Cys]-Asp-NH2 (2020)] |
| > 7 pIC50 | > 7 pIC50 | {DOTA-O2Oc}-[Nle]CPPTQFCD-NH2 (linker 2-8 via mli) [compound DOTA-O2Oc-Nle-[Cys(mli)-Pro-Pro-Thr-Gln-Phe-Cys]-Asp-NH2 (2004)] |
| > 7 pIC50 | > 7 pIC50 | {Buur″}-CPPTEFC[β3hK](DOTA)-OH (disulfide 1-7; SMILES CCCCNC(=O)N[C@H]1CSSC[C@@H](C(=O)N[C@@H](CCCCNC(=O)CN2CCN(CC(=O)O)CCN(CC(=O)O)CCN(CC(=O)O)CC2)CC(=O)O)NC(=O)[C@H](Cc2ccccc2)NC(=O)[C@H](CCC(=O)O)NC(=O)[C@H]([C@@H](C)O)NC(=O)[C@@H]2CCCN2C(=O)[C@@H]2CCCN2C1=O) [compound Buur-[Cys-Pro-Pro-Thr-Glu-Phe-Cys]-Bhk(DOTA)-OH (1014)] |
| > 7 pIC50 | > 7 pIC50 | MCPPTEFCDHFRD (HELM PEPTIDE1{M.C.P.P.T.E.F.C.D.H.F.R.D.[am]}$PEPTIDE1,PEPTIDE1,2:R3-8:R3$$$V2.0; SMILES CSCC[C@H](N)C(=O)N[C@H]1CSSC[C@@H](C(=O)N[C@@H](CC(=O)O)C(=O)N[C@@H](Cc2c[nH]cn2)C(=O)N[C@@H](Cc2ccccc2)C(=O)N[C@@H](CCCNC(=N)N)C(=O)N[C@@H](CC(=O)O)C(N)=O)NC(=O)[C@H](Cc2ccccc2)NC(=O)[C@H](CCC(=O)O)NC(=O)[C@H]([C@@H](C)O)NC(=O)[C@@H]2CCCN2C(=O)[C@@H]2CCCN2C1=O) [compound H-Met-[Cys-Pro-Pro-Thr-Glu-Phe-Cys]-Asp-His-Phe-Arg-Asp-NH2 (1001)] |
| > 7 pIC50 | > 7 pIC50 | {DOTA-Ttds}-[Nle]CPPTQFCD[4Amb]R-NH2 (linker 2-8 via Maleimide(3,4-diyl)) [compound DOTA-Ttds-Nle-[Cys(mli)-Pro-Pro-Thr-Gln-Phe-Cys]-Asp-Pamb-Arg-NH2 (2006)] |
| > 7 pIC50 | > 7 pIC50 | Buur-CPPTEFCDK(DOTA)-NH2 (disulfide 1-7; SMILES CCCCNC(=O)N[C@H]1CSSC[C@@H](C(=O)N[C@@H](CC(=O)O)C(=O)N[C@@H](CCCCNC(=O)CN2CCN(CC(=O)O)CCN(CC(=O)O)CCN(CC(=O)O)CC2)C(N)=O)NC(=O)[C@H](Cc2ccccc2)NC(=O)[C@H](CCC(=O)O)NC(=O)[C@H]([C@@H](C)O)NC(=O)[C@@H]2CCCN2C(=O)[C@@H]2CCCN2C1=O) [compound Buur-[Cys-Pro-Pro-Thr-Glu-Phe-Cys]-Asp-Lys(DOTA)-NH2 (1015)] |
| > 7 pIC50 | > 7 pIC50 | Hexanoyl-CPPTEFCDK(NODAGA)-NH2 (disulfide 1-7; SMILES CCCCCC(=O)N[C@H]1CSSC[C@@H](C(=O)N[C@@H](CC(=O)O)C(=O)N[C@@H](CCCCNC(=O)CCC(C(=O)O)N2CCN(CC(=O)O)CCN(CC(=O)O)CC2)C(N)=O)NC(=O)[C@H](Cc2ccccc2)NC(=O)[C@H](CCC(=O)O)NC(=O)[C@H]([C@@H](C)O)NC(=O)[C@@H]2CCCN2C(=O)[C@@H]2CCCN2C1=O) [compound Hex-[Cys-Pro-Pro-Thr-Glu-Phe-Cys]-Asp-Lys(NODAGA)-NH2 (1020)] |
| > 7 pIC50 | > 7 pIC50 | Hexanoyl-CPPTQFCDK(DOTA)-NH2 (linker 1-7 via mli) [compound Hex-[Cys(mli)-Pro-Pro-Thr-Gln-Phe-Cys]-Asp-Lys(DOTA)-NH2 (2012)] |
| > 7 pIC50 | > 7 pIC50 | Hexanoyl-CPPTEFCDHFRD-NH2 (disulfide 1-7) [compound Hex-[Cys-Pro-Pro-Thr-Glu-Phe-Cys]-Asp-His-Phe-Arg-Asp-NH2 (1002)] |
